Experimental data as given in US20230174652A1 (Regeneron, published 2023).

How the values were obtained:
human CD28 [1] = molecular target: T1, human CD28 (human, UniProt P10747 19-220); experiment: cell-based or functional assay
human CD28 [2] = molecular target: T1, human CD28; experiment: cell-based or functional assay; remark: listed apart in the source
human CD28 [3] = molecular target: T1, human CD28; experiment: cell-based or functional assay; remark: listed apart in the source
human CD28 [4] = molecular target: T1, human CD28; experiment: cell-based or functional assay; remark: listed apart in the source
human CD22 = molecular target: T2, human CD22 (human, UniProt P20273 20-847); experiment: flow cytometry on Raji/CD80 and CD86 negative cells
T2 construct: whole, on cells; also called hCD22
Protocol: Briefly, human CD4+ T-cells, HEK293/hCD20, HEK293/hCD20/hCD22 and Raji/CD80 and CD86 negative cells were resuspended in staining buffer containing D-PBS+2% FBS. […] A negative control sample was included containing no antibody. Cells were washed once with cold staining buffer and incubated for 30-45 minutes with Allophycocyanin (APC) labeled anti-human secondary antibody. After incubation, cells were washed once with cold D-PBS buffer without FBS and incubated with LIVE/DEAD Fixable Green Dead Cell Stain (Invitrogen) according to manufacturer's instructions to discriminate between live and dead cells. Cells were then fixed in BD Cytofix Buffer according to manufacturer's instructions, washed, re-suspended in staining buffer, and analyzed by flow cytometry on an iQue Screener flow cytometer. For EC₅₀ determinations, geometric mean fluorescence intensity (MFI) values were analyzed using a four parameter logistic equation over a 9-point response curve using GraphPad Prism. Fold binding was calculated using the following equation:

B1: REGN5705 (antibody, V domains shown)
VH: QVQLQESGPGLVKPSETLSLTCTVSGGSISSYYWSWIRQPPGKGLEWIGYIYYSGITHYNPSLKSRVTISVDTSKIQFSLKLSSVTAADTAVYYCARWGVRRDYYYYGMDVWGQGTTVTVSS
VL: not shown
Human CD28 [1]
  EC50 [M], luciferase activity, reporter T-cells + HEK293/hCD20, 200 pM REGN1945 (no TCR stimulation): 6.23e-09 M
  EC50 [M], luciferase activity, reporter T-cells + HEK293/hCD20/hCD22, 200 pM REGN1945 (no TCR stimulation): 8.45e-09 M
  EC50 [M], luciferase activity, reporter T-cells + Raji/CD80 and CD86 negative, 200 pM REGN1945 (no TCR stimulation): 7.88e-09 M
  Max RLU, luciferase activity, reporter T-cells + HEK293/hCD20, 200 pM REGN1945 (no TCR stimulation): 25000 RLU
  Max RLU, luciferase activity, reporter T-cells + HEK293/hCD20/hCD22, 200 pM REGN1945 (no TCR stimulation): 25100 RLU
  Max RLU, luciferase activity, reporter T-cells + Raji/CD80 and CD86 negative, 200 pM REGN1945 (no TCR stimulation): 33200 RLU
Human CD28 [2]
  EC50 [M], IL-2 release, primary human CD4+ T-cells + HEK293/hCD20, 2 nM REGN2281 (αCD20 x αCD3): 2.23e-09 M
  EC50 [M], IL-2 release, primary human CD4+ T-cells + Raji/CD80 and CD86 negative, 2 nM REGN2281 (αCD20 x αCD3): 4.51e-11 M
  Max RFU, IL-2 release, primary human CD4+ T-cells + HEK293/hCD20, 2 nM REGN2281 (αCD20 x αCD3): 68900 RFU
  Max RFU, IL-2 release, primary human CD4+ T-cells + HEK293/hCD20/hCD22, 2 nM REGN2281 (αCD20 x αCD3): 57400 RFU
  Max RFU, IL-2 release, primary human CD4+ T-cells + Raji/CD80 and CD86 negative, 2 nM REGN2281 (αCD20 x αCD3): 249000 RFU
Human CD28 [3]
  EC50 [M], IL-2 release, primary human CD4+ T-cells + Raji/CD80 and CD86 negative, 2 nM REGN1945 (isotype control): 1.11e-10 M
  Max RFU, IL-2 release, primary human CD4+ T-cells + HEK293/hCD20, 2 nM REGN1945 (isotype control): 2290 RFU
  Max RFU, IL-2 release, primary human CD4+ T-cells + HEK293/hCD20/hCD22, 2 nM REGN1945 (isotype control): 2950 RFU
  Max RFU, IL-2 release, primary human CD4+ T-cells + Raji/CD80 and CD86 negative, 2 nM REGN1945 (isotype control): 49500 RFU
Human CD28 [4]
  EC50 [M], luciferase activity, reporter T-cells + HEK293/hCD20, 200 pM REGN2281 (αCD20 x αCD3): 2.63e-10 M
  EC50 [M], luciferase activity, reporter T-cells + HEK293/hCD20/hCD22, 200 pM REGN2281 (αCD20 x αCD3): 7.7e-11 M
  EC50 [M], luciferase activity, reporter T-cells + Raji/CD80 and CD86 negative, 200 pM REGN2281 (αCD20 x αCD3): 4.33e-10 M
  Max RLU, luciferase activity, reporter T-cells + HEK293/hCD20, 200 pM REGN2281 (αCD20 x αCD3): 409000 RLU
  Max RLU, luciferase activity, reporter T-cells + HEK293/hCD20/hCD22, 200 pM REGN2281 (αCD20 x αCD3): 171000 RLU
  Max RLU, luciferase activity, reporter T-cells + Raji/CD80 and CD86 negative, 200 pM REGN2281 (αCD20 x αCD3): 569000 RLU

B2: REGN5837 (bispecific antibody, human IgG4, V domains shown)
VH 1: B1 VH
VH 2: EVQLVQSGAEVKKPGESLKISCKGSGYNFATYWIAWVRQMPGKGLELMGIIYPGDSETTYNPSFQGQVTISADKSISNAYLQWSSLKASDTAMYYCARVGGYCSGTSCHNWFDPWGLGTLVTVSS
VL: not shown
notes: also called anti-CD22 x anti-CD28 bispecific antibody; CD22xCD28
Human CD22
  EC50: 9.76 nM
